Blank lines part the entries; values can stand above or below the binder they belong to.
Assays:
GST-ABI5 = target: T1, GST-ABI5 (Arabidopsis thaliana, UniProt Q9SJN0 1-442); experiment: pull-down; 2 µg 6×His-BBX21 bound to Ni-NTA magnetic beads (2 h, 4°C), incubated overnight at 4°C with 2 µg GST or GST-ABI5; wash with 10 mM Tris pH 8.0, 100 mM NaCl, 0.1% Triton X-100, 5 mM imidazol; Western blot with anti-GST; conditions: both partners purified
T1 construct: ABI5 (ABA … 5), Arabidopsis thaliana; Probably made in E. coli like GST and GST-HY5; source: purified
T1 sequence (looked up): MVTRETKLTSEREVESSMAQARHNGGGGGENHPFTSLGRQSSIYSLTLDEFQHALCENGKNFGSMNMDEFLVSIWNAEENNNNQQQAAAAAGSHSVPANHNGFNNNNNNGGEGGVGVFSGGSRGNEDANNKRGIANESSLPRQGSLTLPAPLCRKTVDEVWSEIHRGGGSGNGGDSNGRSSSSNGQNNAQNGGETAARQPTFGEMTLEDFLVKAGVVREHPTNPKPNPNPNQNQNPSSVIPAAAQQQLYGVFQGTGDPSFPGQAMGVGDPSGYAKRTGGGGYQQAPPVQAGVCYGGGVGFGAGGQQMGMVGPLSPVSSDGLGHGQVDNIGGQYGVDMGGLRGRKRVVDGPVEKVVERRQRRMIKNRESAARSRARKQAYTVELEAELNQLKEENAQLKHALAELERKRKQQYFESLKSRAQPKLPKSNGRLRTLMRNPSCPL

GST-HY5 = target: T2, GST-HY5 (Arabidopsis thaliana, UniProt O24646 1-168); experiment: EMSA; 0.5 ug protein; no BBX21; 10 mM Tris-HCl (pH not stated), 150 mM KCl, 1 mM DTT, 50 ng/ml poly(dI-dC), 2.5% glycerol, 0.05% NP-40, 100 mM ZnCl2 (so in the source), 0.5 ug/ml BSA, 20 min at room temperature; 6% native PAGE; conditions: protein: recombinant; tags: N-terminal GST (pGEX-6P-1, printed pEGX-6P-1); chain copies: 2; label: 5' biotin; blunt (complementary oligonucleotides; second strand not seen in material)
T2 sequence: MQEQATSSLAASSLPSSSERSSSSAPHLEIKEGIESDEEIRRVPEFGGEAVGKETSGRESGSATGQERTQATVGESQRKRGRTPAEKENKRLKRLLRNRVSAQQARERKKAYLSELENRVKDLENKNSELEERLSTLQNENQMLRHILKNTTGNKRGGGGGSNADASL

6xHis-BBX21 (STH2) = target: T3, 6xHis-BBX21 (STH2) (Arabidopsis thaliana, UniProt Q9LQZ7 1-331); experiment: EMSA; 10 mM Tris-HCl (pH not stated), 150 mM KCl, 1 mM DTT, 50 ng/ml poly(dI-dC), 2.5% glycerol, 0.05% NP-40, 100 mM ZnCl2 (so in the source), 0.5 ug/ml BSA, 20 min at room temperature; 6% native PAGE; conditions: protein: recombinant; tags: 6xHis; label: 5' biotin; blunt (complementary oligonucleotides; second strand not seen in material)
T3 sequence: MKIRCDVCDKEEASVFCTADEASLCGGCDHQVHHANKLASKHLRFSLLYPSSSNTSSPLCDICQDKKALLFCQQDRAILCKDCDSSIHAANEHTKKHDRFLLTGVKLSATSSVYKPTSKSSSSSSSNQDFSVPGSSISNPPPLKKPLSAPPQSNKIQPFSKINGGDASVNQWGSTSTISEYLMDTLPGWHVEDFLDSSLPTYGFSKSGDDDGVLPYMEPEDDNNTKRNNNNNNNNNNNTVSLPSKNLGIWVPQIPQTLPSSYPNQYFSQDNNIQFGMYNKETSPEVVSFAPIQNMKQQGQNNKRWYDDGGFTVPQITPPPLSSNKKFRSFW

binding result (GST-ABI5): binds
B1: 6×His-BBX21 (natural protein, Arabidopsis thaliana, UniProt Q9LQZ7 1-331, looked up)
chain: T3 sequence
notes: BBX21 (STH2), Arabidopsis thaliana; also called 6×His-tagged BBX21; source: Escherichia coli, purified

B2: ABI5 promoter probe (dsDNA)
DNA 1: GATTCCGAACTTCCATTGGGAGTGCACGTGGACTATTCACTGCATAAGG
DNA 2: CCTTATGCAGTGAATAGTCCACGTGCACTCCCAATGGAAGTTCGGAATC
binding result (GST-HY5): binds | binding result (6xHis-BBX21 (STH2)): no binding

Reference: publication PMC3937224, “Convergence of Light and ABA Signaling on the ABI5 Promoter” (PLoS Genetics, 2014)
